Assay results reported in PMC4166121, “Endothelial nitric oxide synthase is regulated by ERK phosphorylation at Ser^602” (Bioscience Reports, 2014).

Molecular target: T1, biotinylated calmodulin (UniProt P0DP23 1-149, biotin (biotinylated; site not stated))
T1 construct: calmodulin (CaM); experiments done 'essentially as described in [27]'; Held by its biotin on streptavidin sensors (BLI) or a biotin CAPture chip (SPR); also called CaM; biotinylated CaM
Assay: BLI; biotinylated CaM immobilised on streptavidin sensors; eNOS 0, 10.9, 31.9, 43.7 and 87.5 nM as analyte; 180 s association, 180 s dissociation; 10 mM HEPES pH 7.4, 100 mM NaCl, 10% glycerol, 10 uM CaCl2, 0.05% surfactant P-20; 25°C; global single-state fit
Settings: both partners purified

koff: 0.00033 s⁻¹
B1: endothelial nitric oxide synthase phosphorylated by ERK (enzyme)
chain: MGNLKSVGQEPGPPCGLGLGLGLGLCGKQGPASPAPEPSRAPAPATPHAPDHSPAPNSPTLTRPPEGPKFPRVKNWELGSITYDTLCAQSQQDGPCTPRCCLGSLVLPRKLQTRPSPGPPPAEQLLSQARDFINQYYSSIKRSGSQAHEERLQEVEAEVASTGTYHLRESELVFGAKQAWRNAPRCVGRIQWGKLQVFDARDCSSAQEMFTYICNHIKYATNRGNLRSAITVFPQRAPGRGDFRIWNSQLVRYAGYRQQDGSVRGDPANVEITELCIQHGWTPGNGRFDVLPLLLQAPDEAPELFVLPPELVLEVPLEHPTLEWFAALGLRWYALPAVSNMLLEIGGLEFSAAPFSGWYMSTEIGTRNLCDPHRYNILEDVAVCMDLDTRTTSSLWKDKAAVEINLAVLHSFQLAKVTIVDHHAATVSFMKHLDNEQKARGGCPADWAWIVPPISGSLTPVFHQEMVNYILSPAFRYQPDPWKGSATKGAGITRKKTFKEVANAVKISASLMGTLMAKRVKATILYASETGRAQSYAQQLGRLFRKAFDPRVLCMDEYDVVSLEHEALVLVVTSTFGNGDPPENGESFAAALMEMSGPYNSSPRPEQHKSYKIRFNSVSCSDPLVSSWRRKRKESSNTDSAGALGTLRFCVFGLGSRAYPHFCAFARAVDTRLEELGGERLLQLGQGDELCGQEEAFRGWAKAAFQASCETFCVGEEAKAAAQDIFSPKRSWKRQRYRLSTQAEGLQLLPGLIHVHRRKMFQATVLSVENLQSSKSTRATILVRLDTAGQEGLQYQPGDHIGICPPNRPGLVEALLSRVEDPPPPTESVAVEQLEKGSPGGPPPSWVRDPRLPPCTLRQALTFFLDITSPPSPRLLRLLSTLAEEPSEQQELETLSQDPRRYEEWKWFRCPTLLEVLEQFPSVALPAPLLLTQLPLLQPRYYSVSSAPNAHPGEVHLTVAVLAYRTQDGLGPLHYGVCSTWLSQLKTGDPVPCFIRGAPSFRLPPDPYVPCILVGPGTGIAPFRGFWQERLHDIESKGLQPAPMTLVFGCRCSQLDHLYRDEVQDAQERGVFGRVLTAFSREPDSPKTYVQDILRTELAAEVHRVLCLERGHMFVCGDVTMATSVLQTVQRILATEGDMELDEAGDVIGVLRDQQRYHEDIFGLTLRTQEVTSRIRTQSFSLQERHLRGAVPWAFDPPGPDTPGP
modifications: phosphothreonine at 46, phosphoserine at 58, phosphoserine at 602 (by ERK in vitro; 2-3 phosphates per monomer; phosphorylation incomplete, at least 75%)
notes: endothelial nitric oxide synthase (eNOS); the residue numbers used (Thr46, Ser58, Ser602; Ser602 = human Ser600) are those of bovine eNOS; Same protein as m2 after the ERK kinase reaction (20 mM Hepes pH 7.4, 1 mM DTT, 10 mM MgCl2, 1 mM ATP, 10% glycerol, room temperature); also called ERK phosphorylated eNOS; phosphorylated eNOS
